Columns and labels:
[1] = target: T1, soybean trypsin inhibitor (STI, Sigma), P01070
T1 chain: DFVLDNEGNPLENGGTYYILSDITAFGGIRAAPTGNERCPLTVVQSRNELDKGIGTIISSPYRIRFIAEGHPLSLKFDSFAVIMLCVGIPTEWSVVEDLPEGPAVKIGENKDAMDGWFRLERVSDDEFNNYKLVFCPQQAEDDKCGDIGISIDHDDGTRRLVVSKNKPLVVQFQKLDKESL

[2] = target: bovine pancreatic trypsin inhibitor (BPTI, Sigma), P00974
[3] = target: T2, Gly-(Asp4)-Lys-βNA fluorogenic enterokinase substrate
T2 chain: GDDDDK

[4] = target: T3, E. coli thioredoxin/human IL-11 fusion protein with enterokinase cleavage spacer, P20809
T3 chain: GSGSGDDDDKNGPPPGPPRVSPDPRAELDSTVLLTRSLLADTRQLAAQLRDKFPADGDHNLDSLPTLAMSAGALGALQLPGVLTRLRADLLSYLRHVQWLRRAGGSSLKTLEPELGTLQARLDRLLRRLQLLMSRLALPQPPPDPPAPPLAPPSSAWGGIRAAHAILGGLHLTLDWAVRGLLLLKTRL

B1: CHO-produced recombinant bovine enterokinase catalytic domain (light chain) (protein)
chain: IVGGSDSREGAWPWVVALYFDDQQVCGASLVSRDWLVSAAHCVYGRNMEPSKWKAVLGLHMASNLTSPQIETRLIDQIVINPHYNKRRKNNDIAMMHLEMKVNYTDYIQPICLPEENQVFPPGRICSIAGWGALIYQGSTADVLQEADVPLLSNEKCQQQMPEYNITENMVCAGYEAGGVDSCQGDSGGPLMCQENNRWLLAGVTSFGYQCALPNRPGVYARVPRFTEWIQSFLH
Question: Which results are given for B1?
Answer: EFFICIENCY OF CLEAVAGE (relative molar activities) (relative molar activity) (Trypsinogen): 1; cleaving activity toward the fluorogenic enterokinase substrate Gly-(Asp4)-Lys-βNA [1]: This activity was inhibited by the addition of either soybean trypsin inhibitor (STI,Sigma) or bovine pancreatic trypsin inhibitor (BPTI, Sigma); cleaving activity toward the fluorogenic enterokinase substrate Gly-(Asp4)-Lys-βNA [2]: This activity was inhibited by the addition of either soybean trypsin inhibitor (STI,Sigma) or bovine pancreatic trypsin inhibitor (BPTI, Sigma); EFFICIENCY OF CLEAVAGE (relative molar activities) (relative molar activity) [3]: 1; EFFICIENCY OF CLEAVAGE (relative molar activities) (relative molar activity) [4]: 25; cleavage of fusion protein (SDS-PAGE) [4]: resulted in total and specific cleavage of this fusion protein into its two component domains (thioredoxin and IL-11)
